T1: human NaPi2c (human, UniProt Q8N130 1-599)
T1 construct: whole, on cells; also called Hu NaPi2c; SLC34A3
T1 sequence (looked up): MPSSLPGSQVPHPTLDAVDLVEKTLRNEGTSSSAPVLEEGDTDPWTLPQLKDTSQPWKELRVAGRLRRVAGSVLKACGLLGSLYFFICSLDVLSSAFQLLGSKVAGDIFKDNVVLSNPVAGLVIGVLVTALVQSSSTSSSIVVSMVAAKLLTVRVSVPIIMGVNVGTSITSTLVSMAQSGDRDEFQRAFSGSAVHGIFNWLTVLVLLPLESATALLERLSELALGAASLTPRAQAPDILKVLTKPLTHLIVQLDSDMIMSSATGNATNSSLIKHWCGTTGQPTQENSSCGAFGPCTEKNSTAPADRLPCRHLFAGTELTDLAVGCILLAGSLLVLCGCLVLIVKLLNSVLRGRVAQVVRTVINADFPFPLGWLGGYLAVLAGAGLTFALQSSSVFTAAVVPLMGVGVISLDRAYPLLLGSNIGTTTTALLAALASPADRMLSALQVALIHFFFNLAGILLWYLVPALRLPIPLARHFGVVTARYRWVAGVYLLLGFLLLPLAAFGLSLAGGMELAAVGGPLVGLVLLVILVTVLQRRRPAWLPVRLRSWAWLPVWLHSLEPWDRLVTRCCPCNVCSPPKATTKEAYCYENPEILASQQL

T2: human sodium-dependent phosphate transporter 2B (NaPi2b) (human, UniProt O95436 1-690)
T2 construct: UniProt ID is given as 095436 [sic]; also called hNaPi2b; Hu NaPi2b
T2 sequence: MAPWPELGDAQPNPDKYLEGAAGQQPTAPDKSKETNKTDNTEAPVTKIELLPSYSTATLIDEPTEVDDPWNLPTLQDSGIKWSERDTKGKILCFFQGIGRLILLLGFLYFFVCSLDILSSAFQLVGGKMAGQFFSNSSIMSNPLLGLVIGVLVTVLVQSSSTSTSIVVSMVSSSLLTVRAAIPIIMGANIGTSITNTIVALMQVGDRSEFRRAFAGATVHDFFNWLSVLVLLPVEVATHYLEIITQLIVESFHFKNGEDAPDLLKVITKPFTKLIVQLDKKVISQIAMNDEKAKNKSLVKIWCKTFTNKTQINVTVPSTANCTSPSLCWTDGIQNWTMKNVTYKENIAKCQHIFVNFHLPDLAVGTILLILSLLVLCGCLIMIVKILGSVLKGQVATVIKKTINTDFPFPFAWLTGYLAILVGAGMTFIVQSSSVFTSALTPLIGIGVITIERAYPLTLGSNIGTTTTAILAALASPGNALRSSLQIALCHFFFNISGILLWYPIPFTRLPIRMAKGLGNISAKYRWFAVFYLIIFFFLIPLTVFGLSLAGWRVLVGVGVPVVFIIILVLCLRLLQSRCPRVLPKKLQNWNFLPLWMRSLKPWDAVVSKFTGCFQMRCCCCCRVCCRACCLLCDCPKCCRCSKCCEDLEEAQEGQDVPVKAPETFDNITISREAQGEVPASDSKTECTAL

T3: Construct 6 (human NaPi2b del 317-333) (human, UniProt O95436 1-690)
T3 construct: also called CL_#29919
T3 sequence: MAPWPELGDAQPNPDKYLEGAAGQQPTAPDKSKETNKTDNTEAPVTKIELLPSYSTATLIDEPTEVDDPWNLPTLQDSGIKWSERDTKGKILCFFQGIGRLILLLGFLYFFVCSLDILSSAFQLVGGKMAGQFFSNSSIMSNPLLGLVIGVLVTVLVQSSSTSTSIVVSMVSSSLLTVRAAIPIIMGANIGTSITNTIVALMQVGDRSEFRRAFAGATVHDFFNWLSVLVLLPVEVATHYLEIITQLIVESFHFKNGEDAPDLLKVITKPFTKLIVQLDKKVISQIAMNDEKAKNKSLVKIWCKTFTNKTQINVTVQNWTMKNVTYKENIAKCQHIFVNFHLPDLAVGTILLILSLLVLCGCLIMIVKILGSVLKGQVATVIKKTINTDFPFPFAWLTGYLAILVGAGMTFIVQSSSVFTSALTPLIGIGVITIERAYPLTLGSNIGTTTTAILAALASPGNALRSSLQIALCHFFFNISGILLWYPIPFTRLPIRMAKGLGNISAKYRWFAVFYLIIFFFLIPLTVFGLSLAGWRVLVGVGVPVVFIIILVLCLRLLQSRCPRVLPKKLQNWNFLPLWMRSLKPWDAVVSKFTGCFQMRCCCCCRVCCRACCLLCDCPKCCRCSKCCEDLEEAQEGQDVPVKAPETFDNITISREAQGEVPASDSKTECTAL

T4: Full length human NaPi2b (sodium-dependent phosphate transporter 2B, SLC34A2) (human, UniProt O95436 1-690)
T4 construct: also called huNaPi2b; CL_#13432
T4 sequence: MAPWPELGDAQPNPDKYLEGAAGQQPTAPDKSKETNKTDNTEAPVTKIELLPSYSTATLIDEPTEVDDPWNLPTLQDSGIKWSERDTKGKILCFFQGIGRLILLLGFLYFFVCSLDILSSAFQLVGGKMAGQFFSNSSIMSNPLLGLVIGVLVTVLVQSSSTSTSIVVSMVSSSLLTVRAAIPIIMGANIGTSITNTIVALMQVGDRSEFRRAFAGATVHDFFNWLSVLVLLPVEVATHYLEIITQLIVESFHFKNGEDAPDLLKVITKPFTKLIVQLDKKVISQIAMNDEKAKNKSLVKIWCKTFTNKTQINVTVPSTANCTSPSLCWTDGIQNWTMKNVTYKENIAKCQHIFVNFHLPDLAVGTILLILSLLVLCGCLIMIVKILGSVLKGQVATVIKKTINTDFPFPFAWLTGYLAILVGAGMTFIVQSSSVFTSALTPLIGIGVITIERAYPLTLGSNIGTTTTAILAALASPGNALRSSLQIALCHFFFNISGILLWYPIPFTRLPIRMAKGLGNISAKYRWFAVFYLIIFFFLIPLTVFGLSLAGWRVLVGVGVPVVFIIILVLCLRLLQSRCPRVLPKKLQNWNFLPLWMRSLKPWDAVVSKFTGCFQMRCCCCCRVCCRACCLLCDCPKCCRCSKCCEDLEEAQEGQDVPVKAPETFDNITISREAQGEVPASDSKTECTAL

B1: v22277 (palivizumab, anti-RSV negative control, heterodimeric Fc) (antibody, human IgG1, kappa)
heavy 1: GQVTLRESGPALVKPTQTLTLTCTFSGFSLSTSGMSVGWIRQPPGKALEWLADIWWDDKKDYNPSLKSRLTISKDTSKNQVVLKVTNMDPADTATYYCARSMITNWYFDVWGAGTTVTVSSASTKGPSVFPLAPSSKSTSGGTAALGCLVKDYFPEPVTVSWNSGALTSGVHTFPAVLQSSGLYSLSSVVTVPSSSLGTQTYICNVNHKPSNTKVDKKVEPKSCDKTHTCPPCPAPELLGGPSVFLFPPKPKDTLMISRTPEVTCVVVDVSHEDPEVKFNWYVDGVEVHNAKTKPREEQYNSTYRVVSVLTVLHQDWLNGKEYKCKVSNKALPAPIEKTISKAKGQPREPQVYVYPPSRDELTKNQVSLTCLVKGFYPSDIAVEWESNGQPENNYKTTPPVLDSDGSFALVSKLTVDKSRWQQGNVFSCSVMHEALHNHYTQKSLSLSPG
heavy 2: not shown
light: GDIQMTQSPSTLSASVGDRVTITCKSQLSVGYMHWYQQKPGKAPKLLIYDTSKLASGVPSRFSGSGSGTEFTLTISSLQPDDFATYYCFQGSGYPFTFGGGTKLEIKRTVAAPSVFIFPPSDEQLKSGTASVVCLLNNFYPREAKVQWKVDNALQSGNSQESVTEQDSKDSTYSLSSTLTLSKADYEKHKVYACEVTHQGLSSPVTKSFNRGEC
notes: also called neg control
B2: v18993 (lifastuzumab), reference anti-NaPi2b antibody (antibody, human IgG1, kappa)
heavy 1: GEVQLVESGGGLVQPGGSLRLSCAASGFSFSDFAMSWVRQAPGKGLEWVATIGRVAFHTYYPDSMKGRFTISRDNSKNTLYLQMNSLRAEDTAVYYCARHRGFDVGHFDFWGQGTLVTVSSASTKGPSVFPLAPSSKSTSGGTAALGCLVKDYFPEPVTVSWNSGALTSGVHTFPAVLQSSGLYSLSSVVTVPSSSLGTQTYICNVNHKPSNTKVDKKVEPKSCDKTHTCPPCPAPELLGGPSVFLFPPKPKDTLMISRTPEVTCVVVDVSHEDPEVKFNWYVDGVEVHNAKTKPREEQYNSTYRVVSVLTVLHQDWLNGKEYKCKVSNKALPAPIEKTISKAKGQPREPQVYVYPPSRDELTKNQVSLTCLVKGFYPSDIAVEWESNGQPENNYKTTPPVLDSDGSFALVSKLTVDKSRWQQGNVFSCSVMHEALHNHYTQKSLSLSPG
heavy 2: not shown
light: GDIQMTQSPSSLSASVGDRVTITCRSSETLVHSSGNTYLEWYQQKPGKAPKLLIYRVSNRFSGVPSRFSGSGSGTDFTLTISSLQPEDFATYYCFQGSFNPLTFGQGTKVEIKRTVAAPSVFIFPPSDEQLKSGTASVVCLLNNFYPREAKVQWKVDNALQSGNSQESVTEQDSKDSTYSLSSTLTLSKADYEKHKVYACEVTHQGLSSPVTKSFNRGEC
B3: v38591 (humanized anti-NaPi2b antibody, wild-type Fc) (antibody, human IgG1, kappa)
heavy: not shown
light: DVQMTQSPSSLSASVGDRVTITCRASQDVYSYLNWYQQKPGKAVKLLIYYTSRLQSGVPSRFSGSGSGTDYTLTISSLQPEDFATYYCQQYNIFPWTFGQGTKLEIKRTVAAPSVFIFPPSDEQLKSGTASVVCLLNNFYPREAKVQWKVDNALQSGNSQESVTEQDSKDSTYSLSSTLTLSKADYEKHKVYACEVTHQGLSSPVTKSFNRGEC
notes: also called v38591 Wild-type; H1L2
B4: v38591 (humanized anti-NaPi2b antibody, H1L2, wild-type Fc, heavy chains with C-terminal lysine) (antibody, human IgG1, kappa)
heavy: not shown
light: DVQMTQSPSSLSASVGDRVTITCRASQDVYSYLNWYQQKPGKAVKLLIYYTSRLQSGVPSRFSGSGSGTDYTLTISSLQPEDFATYYCQQYNIFPWTFGQGTKLEIKRTVAAPSVFIFPPSDEQLKSGTASVVCLLNNFYPREAKVQWKVDNALQSGNSQESVTEQDSKDSTYSLSSTLTLSKADYEKHKVYACEVTHQGLSSPVTKSFNRGEC
notes: Full-size human IgG1/kappa antibody; also called v38591 (wild-type Fc)
B5: v18992 (MX35), reference anti-NaPi2b antibody (antibody, human IgG1, kappa)
heavy 1: GQVQLVQSGAEVVKPGASVKMSCKASGYTFTGYNIHWVKQAPGQGLEWIGAIYPGNGDTSYKQKFRGRATLTADTSTSTVYMELSSLRSEDSAVYYCARGETARATFAYWGQGTLVTVSSASTKGPSVFPLAPSSKSTSGGTAALGCLVKDYFPEPVTVSWNSGALTSGVHTFPAVLQSSGLYSLSSVVTVPSSSLGTQTYICNVNHKPSNTKVDKKVEPKSCDKTHTCPPCPAPELLGGPSVFLFPPKPKDTLMISRTPEVTCVVVDVSHEDPEVKFNWYVDGVEVHNAKTKPREEQYNSTYRVVSVLTVLHQDWLNGKEYKCKVSNKALPAPIEKTISKAKGQPREPQVYVYPPSRDELTKNQVSLTCLVKGFYPSDIAVEWESNGQPENNYKTTPPVLDSDGSFALVSKLTVDKSRWQQGNVFSCSVMHEALHNHYTQKSLSLSPG
heavy 2: not shown
light: GDIQMTQSPSSLSASVGDRVTITCSASQDIGNFLNWYQQKPGKTVKVLIYYTSSLYSGVPSRFSGSGSGTDYTLTISSLQPEDFATYYCQQYSKLPLTFGQGTKLELKRTVAAPSVFIFPPSDEQLKSGTASVVCLLNNFYPREAKVQWKVDNALQSGNSQESVTEQDSKDSTYSLSSTLTLSKADYEKHKVYACEVTHQGLSSPVTKSFNRGEC

Key:
human NaPi2c = target: T1, human NaPi2c; test: flow cytometry on HEK293-6e cells transfected with human NaPi2c, 24 h at 4 C, anti-human IgG Fc AF647
[1] = target: T2, human sodium-dependent phosphate …; test: flow cytometry on IGROV-1 cells (endogenous NaPi2b), 24 h at 4 C, anti-human IgG Fc AF647
[2] = target: T5, Construct 5 (chimeric human NaPi2b, swap in NaPi2a in 304-348) (human); test: flow cytometry, transfected HEK293-6e cells, antibody 2 nM;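 also: transfected cells exposed to test antibody 24 h at 4 °C to block internalization, at least 1,000 events per well, background is mean MFI of unstained cells lacking primary antibody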
T5 construct: also called CL_#13436

[3] = target: T3, Construct 6 (human NaPi2b del 317-333); test: as above
[4] = target: T4, Full length human NaPi2b …; test: as above
[5] = target: T6, Construct 1 (chimeric human NaPi2b, swap in NaPi2c in 239-259) (human); test: as above
T6 construct: also called CL_#29914

[6] = target: T7, Construct 2 (chimeric human NaPi2b, swap in NaPi2c in 280-301) (human); test: as above
T7 construct: also called CL_#29915

[7] = target: T8, Construct 3 (chimeric human NaPi2b, swap in NaPi2c in 304-321) (human); test: as above
T8 construct: also called CL_#29916

[8] = target: T9, Construct 4 (chimeric human NaPi2b, swap in NaPi2c in 341-358) (human); test: as above
T9 construct: also called CL_#13435

Row | Binder | binding result (human NaPi2c) | EC50 (read off the curve) [1] [nM] | also measured
1 | B1 | no binding (tested: 200 nM) |  | 
2 | B2 | no binding (tested: 200 nM) | ~3 | 
3 | B3 | no binding (tested: 200 nM) | ~2 | 
4 | B4 |  |  | Background-Subtracted AF647 Mean Fluorescence Intensity [2]: -12 MFI; Background-Subtracted AF647 Mean Fluorescence Intensity [3]: -38 MFI; Background-Subtracted AF647 Mean Fluorescence Intensity [4]: 948 MFI; Background-Subtracted AF647 Mean Fluorescence Intensity [5]: 1550 MFI; Background-Subtracted AF647 Mean Fluorescence Intensity [6]: 832 MFI; Background-Subtracted AF647 Mean Fluorescence Intensity [7]: 743 MFI; Background-Subtracted AF647 Mean Fluorescence Intensity [8]: 725 MFI
5 | B5 | no binding (tested: 200 nM) | ~2 | 
